Positions count from the first letter of the chain named. Numbers in names are those of the source.
Legend:
M4 muscarinic receptor [1] = biological target: T1, M4 muscarinic receptor (Homo sapiens, UniProt P08173, L71A); test: Thermostability of M4 muscarinic receptor bound to antagonist NMS; type: physicochemical; settings: antagonist NMS bound, versus parent M4
T1 construct: made in house; host or cells: HEK293T cells, transient
T1 sequence (P08173 1-479 L71A): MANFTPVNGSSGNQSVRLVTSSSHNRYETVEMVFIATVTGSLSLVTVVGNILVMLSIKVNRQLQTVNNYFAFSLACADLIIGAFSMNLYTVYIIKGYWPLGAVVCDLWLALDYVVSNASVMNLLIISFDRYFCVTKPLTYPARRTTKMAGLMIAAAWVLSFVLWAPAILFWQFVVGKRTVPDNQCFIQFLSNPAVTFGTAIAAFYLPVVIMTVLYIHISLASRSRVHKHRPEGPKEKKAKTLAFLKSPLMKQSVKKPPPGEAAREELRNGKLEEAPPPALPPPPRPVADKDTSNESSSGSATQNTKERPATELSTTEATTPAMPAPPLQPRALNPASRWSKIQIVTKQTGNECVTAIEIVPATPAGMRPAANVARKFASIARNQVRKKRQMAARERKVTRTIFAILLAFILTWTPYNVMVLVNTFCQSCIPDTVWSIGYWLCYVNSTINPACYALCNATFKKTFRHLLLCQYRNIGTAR
Method: (§1) In order to stabilise the M4 muscarinic receptors in antagonist conformation, a systematic alanine-scan was performed to identify mutations that stabilise receptors bound to the muscarinic antagonist, NMS. […] However, L71A (three residues N-terminal of the L2.46) was identified as a stabilising mutation. This mutation increases the Tm of this receptor by about 2° C. (FIG. 8a).
(§2) A2AR-(2-316) expression was carried out by using the pRG/III-hs-MBP E. coli expression vector and DH5α cells. Cells were grown at 37° C. in 2 L flasks containing 500 mL of 2×TY medium supplemented with Ampicillin (100 μg/mL) and glucose (0.2% w/v). At OD600≈0.7, IPTG and theophylline were added at final concentrations respectively of 0.5 mM and 100 μM, and the temperature was reduced to 20° C. After 22 to 24 hours, cells were harvested in aliquots of 14 mL, centrifuged for 30 min and stored at −20° C. Both 5HT2C and M4 receptors were transiently expressed in HEK293T cells using GeneJuice transfection reagent used according to the manufacturers guidelines.
(§3) Transiently transfected mammalian cells expressing M4 were harvested about 40 hours post transfection and the receptors were solubilised in 50 mM Tris pH 7.5/250 mM NaCl/1% DDM/EDTA free protease inhibitor mix for 1 hour rotating at 4° C. The solubilised lysate was then cleared by centrifugation at 13000 rpm for 15 minutes at 4° C. The solubilised receptors were then purified on Ni-NTA beads and eluted with 100 mM histidine. The eluted receptor was used in radioligand binding assay. Thermostability of M4 was measured using 25 μL of purified receptor mixed with 95 μL of 12 nM [^3H]-NMS (final concentration of 10 nM). The sample was incubated for 60 min at 4° C., then 30 min at the specified temperature and then 30 min at 4° C. Receptor bound and free radioligand were separated using a 96-well plate gel filtration assay.

M4 muscarinic receptor [2] = test: as above; type: physicochemical, human; settings: bound to antagonist NMS
Method: as §1, §2, §3

A2A receptor = biological target: T2, A2A receptor (Homo sapiens, UniProt P29274, N284A); test: Two point thermostability measurement, NECA binding to A2A alanine scan mutants in DDM; type: physicochemical; settings: 4° C. versus destabilising temperature such as 30° C.
T2 construct: A2AR-(2-316) expression was carried out by using the pRG/III-hs-MBP E. coli expression vector; MBP (named only in the vector name); made in house
Method: In the A2A agonist-bound study the effect of mutations from the alanine scan were determined initially by two point thermostability measurements. In these experiments, the wild type receptors and receptors containing single mutants were solubilised in the detergent DDM and the amount of NECA binding retained at 4° C. and at a destabilising temperature such as 30° C. was determined. A>10% increase in agonist binding to the mutant receptor compared to the wild type receptor at the destabilising temperature is considered to be significant and is indicative of an increase in thermostability.

[3] = biological target: neurotensin receptor NTS1 (Rattus norvegicus, UniProt P20789, Y369A); test: Two point thermostability assay, neurotensin agonist binding to NTS1 alanine scan mutants; type: physicochemical
Source text: An alanine scan has been carried out on the rat neurotensin receptor NTS1 in the presence of the agonist neurotensin in order to stabilise the agonist conformation.

5HT2C receptor [4] = biological target: T3, 5HT2C receptor (Homo sapiens, UniProt P28335, L95A); test: Thermostability of 5HT2C receptor bound to antagonist mesulergine; type: physicochemical; settings: antagonist bound 5HT2C, data not shown
T3 construct: made in house
T3 sequence (P28335 33-458 L95A): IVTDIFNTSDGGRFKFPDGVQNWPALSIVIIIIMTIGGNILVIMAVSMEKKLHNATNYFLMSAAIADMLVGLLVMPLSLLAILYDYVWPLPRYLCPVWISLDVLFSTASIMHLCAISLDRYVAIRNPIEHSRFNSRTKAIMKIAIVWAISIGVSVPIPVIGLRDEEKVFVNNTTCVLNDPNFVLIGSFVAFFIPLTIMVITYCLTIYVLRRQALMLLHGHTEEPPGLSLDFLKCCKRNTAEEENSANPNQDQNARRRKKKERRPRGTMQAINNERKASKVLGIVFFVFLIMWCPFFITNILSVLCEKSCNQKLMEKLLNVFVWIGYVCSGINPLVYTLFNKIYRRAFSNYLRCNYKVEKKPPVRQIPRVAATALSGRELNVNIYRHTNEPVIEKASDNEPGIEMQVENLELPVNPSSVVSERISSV
Method: as §2
(§4) 5HT2C receptor was solubilised from transiently transfected mammalian cells in 50 mM Hepes pH7.4, 100 mM KCl, 0.5% DDM (0.1% CHS/0.6% CHAPS was added to cells for SCH23390 agonist assay). Tm analysis was performed directly on the soluble lysate. The Tm was determined by incubating 108 μl of the lysate with [N^6-methyl-^3H]Mesulergine radioligand at a final concentration of 17 nM or 9 nM [^3H]SCH23390 for one hour at 4° C. The six ligand incubations are then incubated at six different temperatures from 25° C. to 55° C., for thirty minutes. Receptor bound and free radioligand were separated using a 96-well plate gel filtration assay.

5HT2C receptor [5] = test: Thermostability of 5HT2C receptor bound to agonist SCH23390; type: physicochemical, human
Method: An alanine scan has been carried out on the 5HT2C receptor in the presence of the agonist SCH23390 in order to stabilise the agonist conformation. Similar to A2A, it appears that mutating L2.46 (L95 in 5HT2C) to alanine confers significant stability on this receptor increasing the Tm of the receptor by 5.4° C. (FIG. 7). It is notable that in addition to L95, mutating the nearby M93 (two residues away from L2.46) to alanine also confers stability to the agonist bound receptor, resulting in an increase of 2.9° C.
as §2, §4
5HT2C receptor was solubilised from transiently transfected mammalian cells about 40 hours post transfection, in 50 mM Hepes pH7.4/100 mM KCl/0.5% DDM/(0.1% CHS/0.6% CHAPS was added to cells for SCH23390 agonist assay) and protease inhibitor. Cell lysates were left at 4° C. on a rotator and then cleared by centrifugation at 13,200 rpm for 20 minutes at 4° C. Thermostability analysis was performed directly on the soluble lysate. The Tm was determined by incubating 108 μl of the lysate with [N^6-methyl-^3H]Mesulergine radioligand at a final concentration of 17 nM or 9 nM [^3H]SCH23390 for one hour at 4° C. The six ligand incubations are then incubated at six different temperatures from 25° C. to 55° C., for thirty minutes. Receptor bound and free radioligand were separated using G25 Sephadex spin columns.

5HT2C receptor [6] = test: Thermostability of 5HT2C receptor bound to antagonist mesulergine; type: physicochemical, human; settings: bound to antagonist (mesulergine)
Method: as §2, §4

5HT2C receptor [7] = biological target: T4, 5HT2C receptor (Homo sapiens, UniProt P28335, S94A); test: as above; type: physicochemical; settings: antagonist bound, versus parent 5HT2C
T4 construct: made in house
T4 sequence (P28335 33-458 S94A): T3 sequence (P28335 33-458 L95A) with S62A, A63L
Method: as §2, §4

B1: L71A: M4 muscarinic receptor mutant L71A, three residues N-terminal of the L2.46 (protein, UniProt P08173 1-479, looked up, variant L71A)
Muscarinic acetylcholine …: T1 sequence (P08173 1-479 L71A)
M4 muscarinic receptor [1]
  increase of Tm: about 2 °C
M4 muscarinic receptor [2]
  Tm: 36.0 °C

B2: N284: adenosine A2A receptor alanine scan mutant of Asparagine 284 (protein, listed as Homo sapiens)
chain: MPIMGSSVYITVELAIAVLAILGNVLVCWAVWLNSNLQNVTNYFVVSLAAADIAVGVLAIPFAITISTGFCAACHGCLFIACFVLVLTQSSIFSLLAIAIDRYIAIRIPLRYNGLVTGTRAKGIIAICWVLSFAIGLTPMLGWNNCGQPKEGKNHSQGCGEGQVACLFEDVVPMNYMVYFNFFACVLVPLLLMLGVYLRIFLAARRQLKQMESQPLPGERARSTLQKEVHAAKSLAIIVGLFALCWLPLHIINCFTFFCPDCSHAPLWLMYLAIVLSHTNSVVAPFIYAYRIREFRQTFRKIIRSHVLRQQEPFKAAGTSARVLAAHGSDGEQVSLRLNGHPPGVWANGSAPHPERRPNGYALGLVSGGSAQESQGNTGLPDVELLSHELKGVCPEPPGLDDPLAQDGAGVS
A2A receptor
  thermostability (agonist binding at the destabilising temperature compared to wild type): increased thermostability

B3: Y369: rat neurotensin receptor NTS1 mutant, residue 7.53 (Y369) to alanine (protein, listed as Rattus norvegicus)
chain: MHLNSSVPQGTPGEPDAQPFSGPQSEMEATFLALSLSNGSGNTSESDTAGPNSDLDVNTDIYSKVLVTAIYLALFVVGTVGNSVTAFTLARKKSLQSLQSTVHYHLGSLALSDLLILLLAMPVELYNFIWVHHPWAFGDAGCRGYYFLRDACTYATALNVASLSVERYLAICHPFKAKTLMSRSRTKKFISAIWLASALLAIPMLFTMGLQNRSGDGTHPGGLVCTPIVDTATVKVVIQVNTFMSFLFPMLVISILNTVIANKLTVMVHQAAEQGRVCTVGTHNGLEHSTFNMTIEPGRVQALRHGVLVLRAVVIAFVVCWLPYHVRRLMFCYISDEQWTTFLFDFYHYFYMLTNALFYVSSAINPILANLVSANFRQVFLSTLACLCPGWRHRRKKRPTFSRKPNSMSSNHAFSTSATRETLY
[3]
  thermostability (agonist binding at the destabilising temperature compared to wild type): increased agonist binding compared to the wild type receptor

B4: L95A: 5HT2C receptor mutant, L2.46 (L95 in 5HT2C) to alanine (protein, UniProt P28335 33-458, looked up, variant L95A)
5-hydroxytryptamine receptor …: T3 sequence (P28335 33-458 L95A)
5HT2C receptor [4]
  effect on thermal stability: did not confer any stability
5HT2C receptor [5]; agonist SCH23390 bound, versus parent 5HT2C
  increase of Tm: 5.4 °C
5HT2C receptor [5]; bound to agonist SCH23390
  Tm: 48.8 °C

B5: S94A: 5HT2C receptor mutant, S94 to alanine (protein, UniProt P28335 33-458, looked up, variant S94A)
5-hydroxytryptamine receptor …: T3 sequence (P28335 33-458 L95A) with S62A, A63L
5HT2C receptor [6]
  Tm: 48.9 °C
5HT2C receptor [7]
  increase of Tm: 11.76 °C

Source: patent US8703915B2, “Mutant proteins and methods for producing them” (Heptares Therapeutics Limited, priority 2009, dated 2014)
